System: K4 kissing-loop RNA reporter
Test: apparent KD of K4 kissing-loop reporter; higher = weaker reporter binding
Conditions: Eterna round: R107
Method: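 RNA-MaP round R107: designed RNA switches with theophylline, tryptophan, arginine or FMN aptamers are transcribed on-chip within common flanks. They are titrated with a labelled K4 kissing-loop RNA reporter in RNA-MaP buffer (100 mM Tris pH 7.5, 80 mM KCl, 4 mM MgCl2), without ligand or with the indicated ligand. Median apparent KD per design.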

[1] = input ligand: theophylline 20 uM
[2] = input ligand: tryptophan 2.4 mM
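Also: bound reporter read as fluorescence of individual clusters on recovered sequencing chips by microscopy, with normalized cluster intensities fitted with a binding model.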

Sequence	apparent KD of K4 kissing-loop reporter (input ligand: FMN 200 uM) [nM]	apparent KD of K4 kissing-loop reporter (input ligand: arginine 13.2 mM) [nM]	apparent KD of K4 kissing-loop reporter (input ligand: none) [nM]	apparent KD of K4 kissing-loop reporter [1] [nM]	apparent KD of K4 kissing-loop reporter [2] [nM]
AAACGUUGGUCGGAUACCAGCUUGAUCGGAAAACGAUCUGCUGGAGUGAUGUUCCAAUAAAGCCCUUGGCAGCCGACCGACGAAA [MAT - Same State Theophlline B - Mod of Eli - D15]	662	659	1030	746	747
AAACUUGCAGUGAUGUUGCAAGUAGGUGAUACCAGCAUCGAAAGAUGCCCUUGGCAGCACCAAAACAUCACUUAGGUAUCACCAA [(H1)-(H2)-(T1)-(T2)-(H)'-(T)'_Design3]	191	192	210	234	175
AAAGAUCUUCUAGAAACUAGAAGAUCAAGAGAGGAUAUCCGAAUUCGGAGAAGGCUCACUAAGUGAUGUUUGGAGCCAAUGGCAA [AK2 SS FMN A]	1060	1100	1210	1090	932
AAAUAGAUCAGUCACCCAGUGAUGUUGGAAGGAGCGUGCGAAAGCACAGGUAGGUCGCCAGAAUAAAAUUGGCUGAUCAAAAUAA	260	337	212	393	149
AAAUAGAUCAGUCAUCCAGUGAUGUUGGAAGGAGCGUGCGAAAGCACAGGUAGGUCGCCAAAAUAAAACUGGCUGAUCAAAAUAA	292	292	338	453	270
AAAUAGAUCAGUCAUCCAGUGAUGUUGGAAGGAGCGUGCGAAAGCACAGGUAGGUCGCCGAAAUAAAAGUGGCUGAUCAAAAUAA	128	216	143	193	102
AAAUUCUUUUUUUUAUAUAACAAUUCAGAAGGAGCGUGGUAGAACACAGGUAGGUCGCUGAAUAUAAGACUAGUGAUGUUAGUAA [JR_SSArginiA_Sub010]	153	192	203	214	153
AAAUUCUUUUUUUUAUUUAACUUUUCAGAAGGAGCGUGGUAGUACACAGGUAGGUCGCUGAAUUUUGGGCUAGUGAUGUUAGUUA [whbob_SS_Arginine_A_sa113]	221	217	258	311	193
AACACCCGCUAUGAUACCAGUGAAGUGAUGUUUUACUCCGGGCGUAAGACAAAGGUCAGCCACCCUUGGCAGCAUAUCCGCGUAU [theeternabot_exclusion_KL_Theo_B_35]	721	418	594	490	440
AACAUUUUCAGAAGGAGCGUGAAUUAUUCAUAAUUAUAUUAUACGAGUGAUGUUCGUAUUUCACAGGUAGGUCGCUGAUAUAUUA [JR_SSArginiB_Sub001]	113	133	114	133	107
AACCGUGUGGCGGCCGCCACUAGUCUCCAGUGAUGUUGGAGAGACCACGUAAGUGGUCUCCGACAUAGGACCGGGCCAUAUGGAA [Same State - Tryptophan B (Freestyle 25)]	547	339	361	531	692
AACGUUUUGAGAAGGAGCGCGUUAAGCAGUGAUGUUGCUGUAUUUUAUCCAAUUCAUAUAUCGCAGGUAGGUCGCUCAAUACGUA [JR_Nu_SSArginiB_Sub027]	574	496	557	534	432
AACUCUCAGACACUUGAGUGAUGUUCAGACCGAGGACCGGUACGGCCGCCACUCGGGUCUGAGAGAGGUUAUCAAAGAUAGCCAA [Omei KL Tryp A SS A v7]	280	222	336	292	905
AACUGUCAAGGAACUUGCAACAAAGGUGAUACCAGCAUCGAAAGAUGCCCUUGGCAGCACCAACUUGCAGUGAUGUUGCAAGUAA [(T)'-(H)'-(T1)-(T2)-(H1)-(H2)_Design7]	300	243	322	402	286
AAGAAUAAUCUUGCAGUGAUGUUGCAAGAUACCAGCAUCGAAAGAUGCCCUUGGCAGCUUGAAACUGCAAGAAUCAAGCUGAAUA [Design1]	150	131	140	145	137
AAGCAGUCACUCGAAGCCAUCGAAGAUGGACGAGGACCGGUACGGCCGCCACUCGGAGUGAUGUUCCGAAGACUGCAAAAUAAAA	312	274	296	330	469
AAGCCAAAGAUUGCUGCGGGUUCCAGAGAUACCAGCCGUAUUGAAGGCCCUUGGCAGCUCGAGUGAUGUUCGAGCCGUCUCUGGC [Lexerati]	127	117	117	122	105
AAGCUACGCGCGGCCGCCACUGUUUAUGUAUAAAUGCGUCGCUCACUGCUUUAGUGAUGUUGAAGCAGGACCGGGCGAAUGGUAC [theeternabot_exclusion_KL_Trp_B_15]	80.9	75	79.6	76.5	82.7
AAGGACGGGACUUCCUCGCCGGAUAGAGAUACCAGCCCAGCAAUGGGCCCUUGGCAGCUCACUGACCUCAGUGAUGUUGAGGUUC [Arange]	289	203	240	193	210
AAGGCCACGAGAAGGAGCGUGCUAUGGAGUGAUGUUCCAGUGUAGACCUAAGGUCUACACGCACAGGUAGGUCGCUCGUGGUCAA [Omei KL Arginine B SS A v1]	209	186	203	238	186
AAGGGCAGGACUUCCUUGCCGGAUAGAGAUACCAGCCCAGCAAAGGGCCCUUGGCAGCUCACUGACCUCAGUGAUGUUGAGGUUC [Xebisoer]	369	268	332	272	297
AAGGGCUAGGCGGCCGCCACUGGUCGUGUACACAUACGAACCAGUGAUGUUGGUAUUGUAUGCGGCAGGACCGGGCCUAGCCGAA [Exclusion - Tryptophan B (Freestyle 26)]	415	447	448	614	405

Sequence	apparent KD of K4 kissing-loop reporter (input ligand: FMN 200 uM) [nM]	apparent KD of K4 kissing-loop reporter (input ligand: arginine 13.2 mM) [nM]	apparent KD of K4 kissing-loop reporter (input ligand: none) [nM]	apparent KD of K4 kissing-loop reporter [1] [nM]	apparent KD of K4 kissing-loop reporter [2] [nM]
AAGGGCUAGGCGGCCGCCACUGGUCGUGUACACAUACGAGCCAGUGAUGUUGGUAUUGUGUGCGGCAGGACCGGGCCUAGCCGAA [Exclusion - Tryptophan B (Freestyle 25)]	410	303	304	468	387
AAGGGCUAGGCGGCCGCCACUUGUUGUGAACACAUACGAGCCAGUGAUGUUGGUAUUGUGUGCGGAAGGACCGGGCCUAGCCGAA [Exclusion - Tryptophan B (Freestyle 22)]	178	226	228	224	302
AAGGUAUCUAGAUGCUAGCAACAACUAGAUACCAGCAUCGAAAGAUGCCCUUGGCAGCUAGCAGUGAUGUUGCUAGCAAUAAGAA [Design4]	152	130	131	158	131
AAGUAGCUCUCGGCCGCCACUCCUCAGUGAUGUUGAGAUAUUAACUGCCAAUUGGCGUAUUUAAAGAGGACCGGGAGAGCUACAA [AK2 SS Tryptophan B]	389	389	476	397	129
AAGUGAUGUUGUAGUGAUGUUGUGAUGUUGCAGGAUAUAUAGUGAUGUAGAAGGGUAAGUACUGAUUUUUUUUGUGAGUGAUGUU [bbgvzrmullin]	87.9	41.6	75.9	54.1	71.4
AAGUGAUGUUGUAGUGAUGUUGUGAUGUUGCAGGAUAUAUAGUGAUGUAGAAGGGUAAGUACUUAUUUUUUUUUUGAGUGAUGUU [vcbczrmullin]	96.6	45	76.5	58	83.7
AAGUGAUGUUGUAGUGAUGUUGUGAUGUUGCAGGAUAUAUAGUGAUGUAGAAGGGUAUGUACAGAUUUUUUUUUUGAGUGAUGAU [ffdcmullin]	83.4	37.1	64.9	48.1	66.1
AAUAUACAGGGAAGGAGCGCCGUCCAGUGAUGUUGGAGUUAAAUACCAGUGAUGUUGGUUAGGCAGGUAGGUCGCCCUAAAGUAU [Exclusion Arginine B Gf 2]	125	82.7	105	102	96.7
AAUAUAGUGAUGUUAUAUAAGAAGGAGUUACGAGGACCGGUACGGCCGCCACUCGAAACGAGUGAGGAUUUGGGAGAUUGGGUUC [SSTryptA.L]	465	539	393	302	283
AAUAUAUAGUGAAGGAGCGCGUAUUGCAGUGAUGUUGCUAAGUUAUUAUUAUCUAUUUUUACGCAGGUAGGUCGCACUAUAUAUA [JR_SSArginiB_Sub014]	213	231	224	245	193
AAUCAAUACAGAAGGAGCGUGACAAUUACUAUUGAAUUAGGUGCUAGUGAUGUUAGCAUUACACAGGUAGGUCGCUGUACAUUUA [JR_SSArginiB_Sub011]	81.4	85.5	87.5	89	78.3
AAUGAUCGUAUGGCGAGGUACUCGUGUUCGAAGGAUAUUAAUAGAAUAAGAAGGUCGAAAUCGUGUCUGGAAGUGAUGUUUCCAU [theeternabot_sameState_KL_FMN_A_32]	111	106	106	123	89.6
AAUGCAUAGUGAAGGAGCGCGUAUAGCAGUGAUGUUGCUUACUUAUUAUUAUAUUAAUUGACGCAGGUAGGUCGCACUUUGCAUA [JR_ExcArginiB_Sub022]	196	144	196	181	156
AAUUCAAACUGAAGGAGCGAGCAAAUCGGAGUGAUGUUCCAAGCGAGUGAUGUUCGCAUAGCUCAGGUAGGUCGCAGUUUGGAUA [Same State Arginie B GF 13]	120	95.2	107	101	101
AAUUCCUGUUAUGAUACCAGAAAUCACAGCAACCUGCCUACCUAGUGAUGUUAGGAGAAUUUCCCUUGGCAGCAUCGACUGAAGG [theeternabot_sameState_KL_Theo_B_38]	147	173	145	151	124
AAUUUAUUAACUGAUACCAGACUUUAAUUUAUAUAUAUGUCUAGUGAUGUUAAACAUAUUGUCCCUUGGCAGCAGUAUUUAUUAA [JR_SSTheophyB_Sub020]	761	399	755	768	536
ACACGGAGAGGCAUAACGUGCAUCUUCAGCGAGGAUAUCCAUUACAGGAGAAGGCGCUCCGGAGUGAUGUUCCGGCAAAAGAUAC [Quatatte]	83.5	151	102	146	91.5
ACGAAGGAUGGAAGGAGCGCUCGUCAGUCCUGCGAGUGAUGUUCGUGGGUAAAUAUUCGCGAGCAGGUAGGUCGCCAUCUUGAGC [Soregeor]	144	115	144	134	129
ACGACGCAUAGUGAUACCAGCACAAUAUGAGUGAUGUUCAACAUAUAAAUGUAAUAAUUAUGCCCUUGGCAGCACUAUGCGUCAG [KL-SSTheoB1]	658	660	793	707	591
ACGACGGCAGCUCAGUGAUGUUGGGCAUUACGAGGACCGGUACGGCCGCCACUCGCUGCUUUGAUCCGUGGAUGAACCUCAGCAU [theeternabot_sameState_KL_Trp_A_13]	576	464	601	734	402
ACGCGCGCGAGUGAUGUUCGGAGCGGCUGGCAGGAUAUGUAGCAAUGCAGAAGGGUCGUGGCGGGCGCGGCGAAAGCCGCGCCCG [#2 Exclusion - FMN A Attempt #6 (HarryS)]	150	282	444	622	293

— the supplement of paper PMC9170038
